Results from patent publication US20180162952A1 (AbbVie / Abbott, published 2018).

T1: hPTK7-His (soluble His-tagged human PTK7 extracellular domain) (human, UniProt Q13308 31-704)
T1 construct: also called PTK7-ECD-His; monomeric recombinant hPTK7-His (isoform a)
T1 sequence: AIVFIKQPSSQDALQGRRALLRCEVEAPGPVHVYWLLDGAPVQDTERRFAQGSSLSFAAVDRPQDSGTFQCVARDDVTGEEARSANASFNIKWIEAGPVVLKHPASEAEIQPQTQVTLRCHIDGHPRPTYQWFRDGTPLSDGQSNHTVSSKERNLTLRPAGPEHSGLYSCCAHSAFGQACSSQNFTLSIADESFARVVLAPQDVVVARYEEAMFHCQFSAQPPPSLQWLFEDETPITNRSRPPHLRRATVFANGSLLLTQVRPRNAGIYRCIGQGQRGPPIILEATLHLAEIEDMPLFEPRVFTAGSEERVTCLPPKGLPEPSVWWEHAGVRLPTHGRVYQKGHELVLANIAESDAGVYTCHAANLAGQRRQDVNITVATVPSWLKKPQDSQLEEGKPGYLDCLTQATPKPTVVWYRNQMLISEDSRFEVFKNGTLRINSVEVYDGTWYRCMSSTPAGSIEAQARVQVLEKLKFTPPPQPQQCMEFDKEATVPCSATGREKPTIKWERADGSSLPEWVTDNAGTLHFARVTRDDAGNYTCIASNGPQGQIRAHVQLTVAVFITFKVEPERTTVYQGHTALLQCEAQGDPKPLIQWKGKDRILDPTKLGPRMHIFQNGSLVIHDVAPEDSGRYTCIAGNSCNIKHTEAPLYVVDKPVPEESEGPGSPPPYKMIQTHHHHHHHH

T2: human PTK7, full length, expressed on transduced cells (human, UniProt Q13308 31-1070)
T2 sequence: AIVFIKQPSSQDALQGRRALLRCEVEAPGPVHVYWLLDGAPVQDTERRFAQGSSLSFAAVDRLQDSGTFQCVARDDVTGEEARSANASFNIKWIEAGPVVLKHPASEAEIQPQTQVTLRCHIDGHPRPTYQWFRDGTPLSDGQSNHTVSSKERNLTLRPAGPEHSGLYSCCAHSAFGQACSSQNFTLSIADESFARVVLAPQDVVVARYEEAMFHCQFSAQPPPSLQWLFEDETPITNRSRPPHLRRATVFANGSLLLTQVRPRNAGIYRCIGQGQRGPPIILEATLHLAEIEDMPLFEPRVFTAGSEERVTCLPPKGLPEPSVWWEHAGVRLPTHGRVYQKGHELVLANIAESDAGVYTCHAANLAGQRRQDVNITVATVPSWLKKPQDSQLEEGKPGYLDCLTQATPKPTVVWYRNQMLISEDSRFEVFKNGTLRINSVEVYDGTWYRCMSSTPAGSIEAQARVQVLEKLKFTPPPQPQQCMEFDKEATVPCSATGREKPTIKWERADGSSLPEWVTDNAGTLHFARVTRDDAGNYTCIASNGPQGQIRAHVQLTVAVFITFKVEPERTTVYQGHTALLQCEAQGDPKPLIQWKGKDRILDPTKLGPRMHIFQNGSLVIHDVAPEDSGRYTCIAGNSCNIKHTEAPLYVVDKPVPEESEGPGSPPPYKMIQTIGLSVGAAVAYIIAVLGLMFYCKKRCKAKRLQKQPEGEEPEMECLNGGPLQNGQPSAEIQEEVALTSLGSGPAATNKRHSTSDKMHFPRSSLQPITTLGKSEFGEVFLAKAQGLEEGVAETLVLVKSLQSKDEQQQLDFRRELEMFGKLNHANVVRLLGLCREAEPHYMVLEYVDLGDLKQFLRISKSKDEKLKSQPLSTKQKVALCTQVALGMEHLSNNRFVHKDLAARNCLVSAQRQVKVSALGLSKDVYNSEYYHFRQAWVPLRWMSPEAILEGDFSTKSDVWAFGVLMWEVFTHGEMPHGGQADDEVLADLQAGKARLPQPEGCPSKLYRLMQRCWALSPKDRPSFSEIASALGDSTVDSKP

T3: murine PTK7-His (murine, UniProt Q8BKG3 23-696, limits assumed)
T3 construct: also called mouse PTK7-His; mouse PTK7
T3 sequence (looked up): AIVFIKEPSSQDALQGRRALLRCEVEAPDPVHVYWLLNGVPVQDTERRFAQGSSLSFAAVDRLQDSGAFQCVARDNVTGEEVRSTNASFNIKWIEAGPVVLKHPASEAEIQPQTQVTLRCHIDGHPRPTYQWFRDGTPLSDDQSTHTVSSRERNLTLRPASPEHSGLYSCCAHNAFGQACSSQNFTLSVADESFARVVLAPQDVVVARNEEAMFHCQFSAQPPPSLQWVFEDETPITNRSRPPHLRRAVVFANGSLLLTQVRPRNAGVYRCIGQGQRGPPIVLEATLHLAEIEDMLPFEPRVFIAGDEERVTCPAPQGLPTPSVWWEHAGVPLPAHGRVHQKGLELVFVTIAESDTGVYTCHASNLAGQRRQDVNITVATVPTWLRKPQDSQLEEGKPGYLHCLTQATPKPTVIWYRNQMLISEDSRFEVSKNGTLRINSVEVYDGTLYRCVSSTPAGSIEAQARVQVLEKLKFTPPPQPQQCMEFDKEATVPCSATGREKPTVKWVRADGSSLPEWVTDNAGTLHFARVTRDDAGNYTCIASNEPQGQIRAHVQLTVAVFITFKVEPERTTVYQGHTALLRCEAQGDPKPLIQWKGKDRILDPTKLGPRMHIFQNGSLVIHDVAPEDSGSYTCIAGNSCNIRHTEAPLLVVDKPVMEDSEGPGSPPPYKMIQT


Key:
[1] = biological target: T1, hPTK7-His (soluble His-tagged human …); experiment: Biacore (paragraph 369 names ForteBio for FIGS. 7C-7E)
Protocol: (§1) Second, the affinities and kinetic constants kₒₙ and koff of the selected effectors were then measured using bio-layer interferometry analysis on a ForteBio RED (ForteBio, Inc.) with a standard antigen concentration series. Finally, the affinity of selected modulators was measured by surface plasmon resonance (Biacore System, GE Healthcare).

[2] = biological target: T2, human PTK7, full length, expressed on …; experiment: cell-based or functional assay
[3] = biological target: T1, hPTK7-His (soluble His-tagged human …); experiment: Biacore (superscript B); column Affinity (nM)
Protocol: as §1

murine PTK7-His = biological target: T3, murine PTK7-His; experiment: ForteBio, concentration series of recombinant monomeric antigen
Protocol: Finally, cross-reactivity with regard to cynomolgus and murine PTK7 homologs were evaluated in with a ForteBio using a concentration series comprising recombinantly expressed, monomeric antigen.

[4] = biological target: T1, hPTK7-His (soluble His-tagged human …); experiment: SPR, Biacore, antigen at 25, 12.5 and 6.25 nM, 1:1 Langmuir model; murine parent antibody
[5] = biological target: T1, hPTK7-His (soluble His-tagged human …); experiment: ForteBio (superscript F); column Affinity (nM)
Protocol: Specifically, a number of these antibodies were characterized as to affinity, kinetics, binning, and cross reactivity with regard to cynomolgus and murine homologs (e.g., by ForteBio).
In accordance with the instant invention modulator affinity was measured in three ways to ensure accuracy. […] Second, the affinities and kinetic constants kₒₙ and koff of the selected effectors were then measured using bio-layer interferometry analysis on a ForteBio RED (ForteBio, Inc.) with a standard antigen concentration series.

[6] = biological target: T2, human PTK7, full length, expressed on …; experiment: cell-based or functional assay; remark: listed apart in the source
[7] = biological target: T1, hPTK7-His (soluble His-tagged human …); experiment: SPR, Biacore, antigen at 25, 12.5 and 6.25 nM, 1:1 Langmuir model; humanized construct

| Kd [1] [pM] | Kd [3] [pM] | binding result (murine PTK7-His) | Binder | EC50, saporin (Fab-ZAP) cell killing, 293.PTK7 Cells [2] [pM] | reduction in viability of 293.PTK7 cells at 100 pM (Fab-ZAP human) [6] [%] | further results |
| --- | --- | --- | --- | --- | --- | --- |
| 1000 | 1000 | binds | SC6.41 (antibody, V domains shown, Murine monoclonal antibody, kappa light chain) VH: EVQLQQSGAESVRSGASVKLSCTASGLNIKDYYMHWVNLRPEQGLEWIGWIDPENGDTEYAPEFQGKATMTADTSSNTAYLQLSSLTSEDTAVYYCNACNYGSAYGYWGQGTTLTVSS VL: DIVLTQATPSVPVTPGESVSISCRSSKSLLHTKGDTYLYWFLQRPGQSPQLLIYRMSNLASGVPDRFSGSGSGTVFTLRISRVEAEDVGVYYCMQHLEYPFTFGSGTKLEIKR | 2.3 |  |  |
| 600 | 600 | binds | SC6.24 (antibody, V domains shown, Murine monoclonal antibody, kappa light chain) VH: QVQLQQSGPEVVRPGVSVKISCKGSGYTFTDYAVHWVKLSHAKSLEWIGVISTYNDYTYNNQDFKGKATMTVDKSSSTAYMELARLTSEDSAIYYCARGNSYFYALDYWGQGTSVTVSS VL: DIVLTQSPASLAVSLGQRATISCRASESVDSYGKSFMHWYQQRPGQPPKLLIYRASNLESGIPARFSGSGSRTDFTLTINPVEADDVATYYCQQSNEDPWTFGGGTKLEIK | 2.3 |  |  |
| 500 | 500 | binds | SC6.58 (antibody, V domains shown, Murine monoclonal antibody, kappa light chain) VH: EVKLLESGGGLVQPGGSLKLSCAASGFDFSRYWMSWVRQAPGKGLEWIGDLNPDSSAINYTPSLKDKFIISRDNAKNTLYLQMSKVRSEDTALYYCTLITTLVPYTMDFWGQGTSVTVSS VL: ETTVTQSPASLSMAIGEKVTIRCITNTDIDDDMNWYQQKPGEPPKLLISEGNGLRPGVPSRFSSSGYGTDFVFTIENMLSEDVADYYCLQSDNLPLTFGSGTKLEIK | 10.4 |  |  |
|  |  | binds | SC6.23 (antibody, V domains shown, Murine monoclonal antibody, kappa light chain; also called murine SC6.23) VH: QVTLKESGPGILKPSQTLSLTCSFSGFSLSTSNMGVGWIRQPSGKGLEWLAHIWWDDDKYYNPSLKSQLTISKDTSRNQVFLKITSVDTEDTATYYCVRSNYGYAWFAYWGQGTLVTVSA VL: DIKMTQSPSSMYASLGERVTITCKASQDIYPYLNWFQQKPGKSPKTLIYRTNRLLDGVPSRFSGSGSGQDYSLTISSLDYEDMGIYYCLQYDEFPLTFGAGTKLELK | 1.1 |  | Kd [4]: 2300 pM |
|  |  | binds | SC6.21 (antibody, V domains shown, Murine monoclonal antibody) VH: DVQLQESGPGLVKPSQTLSLTCSVPDYSITSDYHWHWIRQFPGNKLEWMGYISSRGSTNYNPSLKNRISITHDTSENQFFLKLTSVTTEDSATYYCAGLSQLALDYWGQGTTLTVSS VL: DIVMSQSPSSLAVSVGEKVTLSCKSSQSLLYSSTQNNYLAWYQQTPGQSPKLLIYWASTRESGVPDRFTGSGSGTDFTLTISSVKAEDLAVYYCQQYYSYPWTFGGGTKLEIK | 30.6 |  | Kd [5]: < 100 pM |
| 2100 |  |  | hSC6.41 (antibody, human IgG1, V domains shown, Humanized; also called humanized SC6.41) VH: QVQLVQSGAEVKKPGASVKVSCKASGYTFKDYYMHWVRQAPGQGLEWMGWIDPENGDTEYAPEFQGRVTMTRDTSTSTVYMELSSLRSEDTAVYYCNACNYGSAYGYWGQGTTLTVSS VL: DIVMTQSPLSLPVTPGEPASISCRSSKSLLHTKGDTYLYWFLQKPGQSPQLLIYRMSNRASGVPDRFSGSGSGTDFTLKISRVEAEDVGVYYCMQHLEYPFTFGQGTKLEIKR |  |  |  |
|  |  |  | hSC6.24 (antibody, human IgG1, V domains shown) VH: QVQLVQSGPEVKKPGASVKVSCKASGYTFTDYAVHWVRQAPGKRLEWIGVISTYNDYTYNNQDFKGRVTMTRDTSASTAYMELSRLRSEDTAVYYCARGNSYFYALDYWGQGTSVTVSS VL: EIVLTQSPATLSLSPGERATLSCRASESVDSYGKSFMHWYQQKPGQAPRLLIYRASNLESGIPARFSGSGSGTDFTLTISSLEPEDFAVYYCQQSNEDPWTFGGGTKLEIKR |  | > 80 |  |
| 1000 |  |  | hSC6.58 (antibody, human IgG1, V domains shown, Humanized; also called humanized SC6.58) VH: EVQLVESGGGLVQPGGSLRLSCAASGFDFSRYWMSWVRQAPGKGLEWIGDLNPDSSAINYVDSVKGRFTISRDNAKNSLYLQMNSLRAEDTAVYYCTLITTLVPYTMDFWGQGTSVTVSS VL: ETTLTQSPAFMSATPGDKVNISCITNTDIDDDMNWYQQKPGEAAILLISEGNGLRPGIPPRFSGSGYGTDFTLTINNIESEDAAYYFCLQSDNLPLTFGSGTKLEIKR |  | > 80 |  |
|  |  |  | hSC6.23 (antibody, V domains shown, Humanized; also called humanized SC6.23) VH: QITLKESGPTLVKPTQTLTLTCTFSGFSLSTSNMGVGWIRQPPGKALEWLAHIWWDDDKYYSPSLKSRLTITKDTSKNQVVLTMTNMDPVDTATYYCVRSNYGYAWFAYWGQGTLVTVSS VL: DIQMTQSPSSLSASVGDRVTITCKASQDIYPYLNWFQQKPGKAPKTLIYRTNRLLDGVPSRFSGSGSGTDFTFTISSLQPEDIATYYCLQYDEFPLTFGAGTKLEIK |  | > 80 | Kd [7]: 3900 pM |
